Measurements published in US20110305711A1 (Eli Lilly, published 2011).
Numbering of substitutions follows the chain as printed. One block for each binder: values may come before it.

Legend:
[1] = target: T1, human α-CGRP (Bachem H1470) (human, UniProt P06881 83-119); experiment: cell-based or functional assay
T1 peptide (looked up): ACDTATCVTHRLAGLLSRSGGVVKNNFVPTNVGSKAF

Human CGRP (human) [2] = target: Human CGRP (human) (UniProt P06881); experiment: SPR, Biacore T100, 37 C
Human CGRP (human) [3] = target: Human CGRP (human) (UniProt P06881); experiment: SPR, Biacore T100, 37 C, antibody captured on protein A, CGRP as analyte; n=1
Human CGRP (human) [4] = target: Human CGRP (human) (UniProt P06881); experiment: SPR, Biacore T100, 37 C, antibody captured on protein A, CGRP as analyte; mean ± SD, n=2
Human CGRP (human) [5] = target: Human CGRP (human) (UniProt P06881); experiment: SPR, Biacore T100, 37 C, antibody captured on protein A, CGRP as analyte; mean ± SD, n=3
Human CGRP (human) [6] = target: Human CGRP (human) (UniProt P06881); experiment: SPR, Biacore T100, 37 C, antibody captured on protein A, CGRP as analyte; mean ± SD, n=6
Human CGRP (human) [7] = target: Human CGRP (human) (UniProt P06881); experiment: SPR, Biacore T100, 37 C, antibody captured on protein A, CGRP as analyte; mean ± SD, n=4

B1: Antibody G1 (antibody, V domains shown)
VH: EVQLVESGGGLVQPGGSLRLSCAASGFTFSNYWISWVRQAPGKGLEWVAEIRSESDASATHYAEAVKGRFTISRDNAKNSLYLQMNSLRAEDTAVYYCLAYFDYGLAIQNYWGQGTLVTVSS
VL: EIVLTQSPATLSLSPGERATLSCKASKRVTTYVSWYQQKPGQAPRLLIYGASNRYLGIPARFSGSGSGTDFTLTISSLEPEDFAVYYCSQSYNYPYTFGQGTKLEIK
inhibition of CGRP induced cAMP formation in SK-N-MC cells (IC50) [1]: 5.36 nM

B2: Antibody I (antibody, human IgG4 S228P, kappa, F234A L235A, V domains shown)
VH: QVQLVQSGAEVKKPGASVKVSCKASGYTFGNYWMQWVRQAPGQGLEWMGAIYEGTGDTRYIQKFAGRVTMTRDTSTSTVYMELSSLRSEDTAVYYCARLSDYVSGFSYWGQGTLVTVSS
VL: DIQMTQSPSSLSASVGDRVTITCRASQDIDNYLNWYQQKPGKAPKLLIYYTSEYHSGVPSRFSGSGSGTDFTFTISSLQPEDIATYYCQQGDALPPTFGQGTKLEIKR
Kd (Human CGRP (human) [2]): < 200000 nM
Kd (Human CGRP (human) [3]): 0.19 nM

B4: Antibody II (antibody, human IgG4 S228P, kappa, F234A L235A, V domains shown)
VH: B2 VH with D57K, R59V
VL: B2 VL
Kd (Human CGRP (human) [2]): < 200000 nM
Kd (Human CGRP (human) [5]): 0.026 nM

B5: Antibody III (antibody, human IgG4 S228P, kappa, F234A L235A, V domains shown)
VH: B2 VH with A16S, D57K, R59V, G66D, M70I, R72A, T74K, V79A, S107G, L114T
VL: B2 VL with Q27K, D30S, N31K, E53G, F73L, I83F, Q100G, L104V
inhibition of CGRP induced cAMP formation in SK-N-MC cells (IC50) [1]: 0.41 nM
Kd (Human CGRP (human) [2]): < 200000 nM
Kd (Human CGRP (human) [6]): 0.031 nM

Further lines, results first:

Kd (Human CGRP (human) [2]): < 200000 nM
Kd (Human CGRP (human) [4]): 0.024 nM
B3: Antibody V (antibody, human IgG4 S228P, kappa, F234A L235A, V domains shown)
VH: B2 VH with A16S, D57K, R59V, M70I, R72A, T74K, V79A, S107G, L114T
VL: B2 VL with N31K, E53G, F73L, I83F, Q100G, L104V

Kd (Human CGRP (human) [2]): < 200000 nM
Kd (Human CGRP (human) [7]): 0.024 nM
B6: Antibody IV (antibody, human IgG4 S228P, kappa, F234A L235A, V domains shown)
VH: B2 VH with D57K, R59V, S107G
VL: B2 VL with Q27R, D28P, N31K
